In this experiment the target is NADPH-dependent imine reductase from Ajellomyces dermatitidis (Ajellomyces dermatitidis). Put plainly: crystal structure; three crystal forms, sitting drop, 298 K, protein at 40 mg/ml in 50 mM Tris-HCl pH 7.5, 300 mM NaCl; data set 1 P3(1)21 with NADPH4 (one dimer in the asymmetric unit), data set 2 C2(1) with NADP+ (nine molecules, four and a half dimers), data set 3 P3(1)21 with NADP+ and 2,2-difluoroacetophenone (half-dimer, partner by crystal symmetry).

As usually defined, the stoichiometry N is the number of molecules, sites or subunits per partner or assembly. Consider “NADPH-dependent imine reductase from Ajellomyces dermatitidis (enzyme)”, for which the stoichiometry N was determined as 2.
